From paper PMC2064808 come the findings set out here.

For the assay, the target named is GST-β3 integrin cytodomain (human) (UniProt P05106). Put plainly: ELISA. A general note: ELISA stands for enzyme-linked immunosorbent assay.
Chain of UniProt P05106 (P05106 27-788): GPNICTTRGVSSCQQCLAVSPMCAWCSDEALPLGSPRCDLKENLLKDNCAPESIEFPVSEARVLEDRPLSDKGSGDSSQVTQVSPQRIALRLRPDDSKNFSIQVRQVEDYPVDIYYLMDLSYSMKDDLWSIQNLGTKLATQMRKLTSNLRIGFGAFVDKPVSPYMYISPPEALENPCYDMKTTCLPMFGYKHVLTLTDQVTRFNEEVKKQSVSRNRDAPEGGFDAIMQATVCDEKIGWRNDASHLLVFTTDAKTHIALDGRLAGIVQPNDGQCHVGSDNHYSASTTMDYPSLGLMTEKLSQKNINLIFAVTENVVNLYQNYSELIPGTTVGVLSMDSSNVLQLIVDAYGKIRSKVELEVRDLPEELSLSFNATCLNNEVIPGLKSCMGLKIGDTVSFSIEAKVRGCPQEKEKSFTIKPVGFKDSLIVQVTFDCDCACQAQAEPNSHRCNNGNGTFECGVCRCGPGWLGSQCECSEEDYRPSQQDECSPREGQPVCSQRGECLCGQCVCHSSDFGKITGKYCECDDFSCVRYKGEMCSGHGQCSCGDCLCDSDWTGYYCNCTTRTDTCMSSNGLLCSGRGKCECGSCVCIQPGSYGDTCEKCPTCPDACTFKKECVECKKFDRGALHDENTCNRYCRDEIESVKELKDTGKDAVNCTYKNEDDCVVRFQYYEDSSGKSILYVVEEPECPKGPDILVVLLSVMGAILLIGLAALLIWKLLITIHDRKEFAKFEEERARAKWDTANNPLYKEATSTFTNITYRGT

B1: His-PKD1 treated with alkaline phosphatase (enzyme)
chain: MSVPPLLRPPSPLLPAAAAVAAAAAALVPGSGPAPFPAPGAAPAGGISFHLQIGLSREPVLLLQDSSGDYSLAHVREMACSIVDQKFPECGFYGLYDKILLFRHDPASDNILQLVKIASDIQEGDLIEVVLSASATFEDFQIRPHALFVHSYRAPAFCDHCGEMLWGLVRQGLKCEGCGLNYHKRCAFKIPNNCSGVRRRRLSNVSLTGLGTVRTASAEFSTSVPDEPLLSPVSPGFEQKSPSESFIGREKRSNSQSYIGRPIQLDKLLMSKVKVPHTFVIHSYTRPTVCQFCKKLLKGLFRQGLQCKDCRFNCHKRCAPKVPNNCLGEVTINGELLSPGAESDVVMEEGSDDNDSERNSGLMDDMDEAMVQDTEMALAEGQSGGAEMQDPDADQEDSNRTISPSTSNNIPLMRVVQSVKHTKRRSSTVMKEGWMVHYTSKDTLRKRHYWRLDSKCITLFQNDTGSRYYKEIPLSEILCLEPAKPSALTPVGATPHCFEITTANVVYYVGENVVNPSSSPPNNSVLPSGIGPDVARMWEVAIQHALMPVIPKGSSVGSGSNSHKDISVSISVSNCQIQENVDISTVYQIFPDEVLGSGQFGIVYGGKHRKTGRDVAIKIIDKLRFPTKQESQLRNEVAILQNLHHPGVVNLECMFETPERVFVVMEKLHGDMLEMILSSEKGRLPEHITKFLITQILVALRHLHFKNIVHCDLKPENVLLASADPFPQVKLCDFGFARIIGEKSFRRSVVGTPAYLAPEVLRNKGYNRSLDMWSVGVIIYVSLSGTFPFNEDEDIHDQIQNAAFMYPPNPWKEISHEAIDLINNLLQVKMRKRYSVDKTLSHPWLQDYQTWLDLRELECRIGERYITHESDDSRWEQYAGEQGLQYPAHLISLSASHSDSPEAEEREMKALSERVSIL
modifications: ~80% dephosphorylation of the kinase by alkaline phosphatase
The molecule B1 yielded a fold reduction of affinity against untreated PKD1 of 5 fold.
